Source: publication PMC10296741, “One Single Tube Reaction of Aptasensor-Based Magnetic Sensing System for Selective Fluorescent Detection of VEGF in Plasma”

Target: VEGF-165 (UniProt P15692-4 27-191)
Assay: magnetic bead capture with fluorescent complementary probe (fluorescence rebound); 50 uM KCl, 1 mM Mg2+, pH 7.0; linear 0.2-2.0 ng/mL VEGF in plasma, LOD 0.0445 ng/mL; 1X TBSE: 10 mM Tris, 0.05 mM EDTA, 100 mM NaCl, 1 mM MgCl2, 50 uM KCl, pH 7.0; 0.1 uM aptamer (95 C 3 min, cooled), 25 C, 45 min
Conditions: protein: commercial; chain copies: 2; label: 5'-biotin; G-quadruplex

Sequence of VEGF-165 (P15692 other isoform, or with tags, fused parts or gaps): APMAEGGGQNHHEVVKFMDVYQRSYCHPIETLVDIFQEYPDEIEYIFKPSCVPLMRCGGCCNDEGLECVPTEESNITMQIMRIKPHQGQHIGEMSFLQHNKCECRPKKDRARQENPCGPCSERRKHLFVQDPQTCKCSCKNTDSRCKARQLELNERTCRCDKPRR

TGTGGGGGTGGACGGGCCGGGTAGA (structured_DNA) [VEGF aptamer (APT)]
binding result: binds
